Results reported in US12679878B2, “CRF2 receptor agonists and their use in therapy” (SANOFI, priority 2020, dated 2026).
Starred links: 1 amine or outer side, 2 acyl side, 3 side chain; linkers in the order of their positions; H or OH if unused. Non-standard residues stand in square brackets, D forms with d. Groups on a side chain read outwards from the residue. No end group written: not given here. *: point of attachment. C18 diacid = O=C(O)CCCCCCCCCCCCCCCCC(=O)*; γGlu = O=C(O)[C@H](CCC(=O)[*:2])N[*:1]; AEEA = NCCOCCOCC(=O)O; Aib = CC(C)(N)C(=O)O

B1: SEQ ID NO: 121 (peptide)
peptide: IVLSLDVPIKLK([AEEA-AEEA-γGlu-C18 diacid])QILLKQERQKKQREKAEKNKQILAQV-NH2
modifications: N-terminus assumed
SMILES: CC[C@H](C)[C@H](N)C(=O)N[C@H](C(=O)N[C@@H](CC(C)C)C(=O)N[C@@H](CO)C(=O)N[C@@H](CC(C)C)C(=O)N[C@@H](CC(=O)O)C(=O)N[C@H](C(=O)N1CCC[C@H]1C(=O)N[C@H](C(=O)N[C@@H](CCCCN)C(=O)N[C@@H](CC(C)C)C(=O)N[C@@H](CCCCNC(=O)COCCOCCNC(=O)COCCOCCNC(=O)CC[C@H](NC(=O)CCCCCCCCCCCCCCCCC(=O)O)C(=O)O)C(=O)N[C@@H](CCC(N)=O)C(=O)N[C@H](C(=O)N[C@@H](CC(C)C)C(=O)N[C@@H](CC(C)C)C(=O)N[C@@H](CCCCN)C(=O)N[C@@H](CCC(N)=O)C(=O)N[C@@H](CCC(=O)O)C(=O)N[C@@H](CCCNC(=N)N)C(=O)N[C@@H](CCC(N)=O)C(=O)N[C@@H](CCCCN)C(=O)N[C@@H](CCCCN)C(=O)N[C@@H](CCC(N)=O)C(=O)N[C@@H](CCCNC(=N)N)C(=O)N[C@@H](CCC(=O)O)C(=O)N[C@@H](CCCCN)C(=O)N[C@@H](C)C(=O)N[C@@H](CCC(=O)O)C(=O)N[C@@H](CCCCN)C(=O)N[C@@H](CC(N)=O)C(=O)N[C@@H](CCCCN)C(=O)N[C@@H](CCC(N)=O)C(=O)N[C@H](C(=O)N[C@@H](CC(C)C)C(=O)N[C@@H](C)C(=O)N[C@@H](CCC(N)=O)C(=O)N[C@H](C(N)=O)C(C)C)[C@@H](C)CC)[C@@H](C)CC)[C@@H](C)CC)C(C)C)C(C)C
B2: SEQ ID NO: 119 (peptide)
peptide: IVLSLDVPIKLK([AEEA-AEEA-γGlu-C18 diacid])QILLKQERQKK[Aib]RQKAEKNKQILAQV-NH2
modifications: N-terminus assumed
SMILES: CC[C@H](C)[C@H](N)C(=O)N[C@H](C(=O)N[C@@H](CC(C)C)C(=O)N[C@@H](CO)C(=O)N[C@@H](CC(C)C)C(=O)N[C@@H](CC(=O)O)C(=O)N[C@H](C(=O)N1CCC[C@H]1C(=O)N[C@H](C(=O)N[C@@H](CCCCN)C(=O)N[C@@H](CC(C)C)C(=O)N[C@@H](CCCCNC(=O)COCCOCCNC(=O)COCCOCCNC(=O)CC[C@H](NC(=O)CCCCCCCCCCCCCCCCC(=O)O)C(=O)O)C(=O)N[C@@H](CCC(N)=O)C(=O)N[C@H](C(=O)N[C@@H](CC(C)C)C(=O)N[C@@H](CC(C)C)C(=O)N[C@@H](CCCCN)C(=O)N[C@@H](CCC(N)=O)C(=O)N[C@@H](CCC(=O)O)C(=O)N[C@@H](CCCNC(=N)N)C(=O)N[C@@H](CCC(N)=O)C(=O)N[C@@H](CCCCN)C(=O)N[C@@H](CCCCN)C(=O)NC(C)(C)C(=O)N[C@@H](CCCNC(=N)N)C(=O)N[C@@H](CCC(N)=O)C(=O)N[C@@H](CCCCN)C(=O)N[C@@H](C)C(=O)N[C@@H](CCC(=O)O)C(=O)N[C@@H](CCCCN)C(=O)N[C@@H](CC(N)=O)C(=O)N[C@@H](CCCCN)C(=O)N[C@@H](CCC(N)=O)C(=O)N[C@H](C(=O)N[C@@H](CC(C)C)C(=O)N[C@@H](C)C(=O)N[C@@H](CCC(N)=O)C(=O)N[C@H](C(N)=O)C(C)C)[C@@H](C)CC)[C@@H](C)CC)[C@@H](C)CC)C(C)C)C(C)C
B3: SEQ ID NO: 120 (peptide)
peptide: IVLSLDVPIKLK([AEEA-AEEA-γGlu-C18 diacid])QILLKQERQKKQREQAEKNKQILEQV-NH2
modifications: N-terminus assumed
SMILES: CC[C@H](C)[C@H](N)C(=O)N[C@H](C(=O)N[C@@H](CC(C)C)C(=O)N[C@@H](CO)C(=O)N[C@@H](CC(C)C)C(=O)N[C@@H](CC(=O)O)C(=O)N[C@H](C(=O)N1CCC[C@H]1C(=O)N[C@H](C(=O)N[C@@H](CCCCN)C(=O)N[C@@H](CC(C)C)C(=O)N[C@@H](CCCCNC(=O)COCCOCCNC(=O)COCCOCCNC(=O)CC[C@H](NC(=O)CCCCCCCCCCCCCCCCC(=O)O)C(=O)O)C(=O)N[C@@H](CCC(N)=O)C(=O)N[C@H](C(=O)N[C@@H](CC(C)C)C(=O)N[C@@H](CC(C)C)C(=O)N[C@@H](CCCCN)C(=O)N[C@@H](CCC(N)=O)C(=O)N[C@@H](CCC(=O)O)C(=O)N[C@@H](CCCNC(=N)N)C(=O)N[C@@H](CCC(N)=O)C(=O)N[C@@H](CCCCN)C(=O)N[C@@H](CCCCN)C(=O)N[C@@H](CCC(N)=O)C(=O)N[C@@H](CCCNC(=N)N)C(=O)N[C@@H](CCC(=O)O)C(=O)N[C@@H](CCC(N)=O)C(=O)N[C@@H](C)C(=O)N[C@@H](CCC(=O)O)C(=O)N[C@@H](CCCCN)C(=O)N[C@@H](CC(N)=O)C(=O)N[C@@H](CCCCN)C(=O)N[C@@H](CCC(N)=O)C(=O)N[C@H](C(=O)N[C@@H](CC(C)C)C(=O)N[C@@H](CCC(=O)O)C(=O)N[C@@H](CCC(N)=O)C(=O)N[C@H](C(N)=O)C(C)C)[C@@H](C)CC)[C@@H](C)CC)[C@@H](C)CC)C(C)C)C(C)C
B4: SEQ ID NO: 122 (peptide)
peptide: IVLSLDVPIKLK([AEEA-AEEA-γGlu-C18 diacid])QILLKQERQKKQRQQAEKNKQILAQV-NH2
modifications: N-terminus assumed
SMILES: CC[C@H](C)[C@H](N)C(=O)N[C@H](C(=O)N[C@@H](CC(C)C)C(=O)N[C@@H](CO)C(=O)N[C@@H](CC(C)C)C(=O)N[C@@H](CC(=O)O)C(=O)N[C@H](C(=O)N1CCC[C@H]1C(=O)N[C@H](C(=O)N[C@@H](CCCCN)C(=O)N[C@@H](CC(C)C)C(=O)N[C@@H](CCCCNC(=O)COCCOCCNC(=O)COCCOCCNC(=O)CC[C@H](NC(=O)CCCCCCCCCCCCCCCCC(=O)O)C(=O)O)C(=O)N[C@@H](CCC(N)=O)C(=O)N[C@H](C(=O)N[C@@H](CC(C)C)C(=O)N[C@@H](CC(C)C)C(=O)N[C@@H](CCCCN)C(=O)N[C@@H](CCC(N)=O)C(=O)N[C@@H](CCC(=O)O)C(=O)N[C@@H](CCCNC(=N)N)C(=O)N[C@@H](CCC(N)=O)C(=O)N[C@@H](CCCCN)C(=O)N[C@@H](CCCCN)C(=O)N[C@@H](CCC(N)=O)C(=O)N[C@@H](CCCNC(=N)N)C(=O)N[C@@H](CCC(N)=O)C(=O)N[C@@H](CCC(N)=O)C(=O)N[C@@H](C)C(=O)N[C@@H](CCC(=O)O)C(=O)N[C@@H](CCCCN)C(=O)N[C@@H](CC(N)=O)C(=O)N[C@@H](CCCCN)C(=O)N[C@@H](CCC(N)=O)C(=O)N[C@H](C(=O)N[C@@H](CC(C)C)C(=O)N[C@@H](C)C(=O)N[C@@H](CCC(N)=O)C(=O)N[C@H](C(N)=O)C(C)C)[C@@H](C)CC)[C@@H](C)CC)[C@@H](C)CC)C(C)C)C(C)C

Target: human corticotropin-releasing factor 2α (CRF2 α receptor) (human), Q13324
Sequence (Q13324 20-411): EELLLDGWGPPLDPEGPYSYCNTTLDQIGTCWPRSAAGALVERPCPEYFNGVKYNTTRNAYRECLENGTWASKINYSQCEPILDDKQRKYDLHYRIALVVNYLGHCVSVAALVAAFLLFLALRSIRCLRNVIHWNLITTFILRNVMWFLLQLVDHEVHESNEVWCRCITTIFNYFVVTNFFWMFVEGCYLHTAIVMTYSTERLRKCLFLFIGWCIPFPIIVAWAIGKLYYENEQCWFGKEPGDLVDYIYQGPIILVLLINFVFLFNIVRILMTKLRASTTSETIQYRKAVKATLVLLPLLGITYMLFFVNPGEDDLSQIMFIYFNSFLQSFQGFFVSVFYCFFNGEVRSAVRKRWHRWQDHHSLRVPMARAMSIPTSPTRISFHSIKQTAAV
Test: cell-based or functional assay

Row | Binder | EC50 [nM], 0% HSA [nM] | EC50 [nM], 0.1% HSA [nM]
1 | B1 | 0.73 | 41.3
2 | B2 | 0.13 | 4.97
3 | B3 | 1.27 | 61.1
4 | B4 | 0.04 | 1.71
